Results as given in patent US20230302100A1 (published 2023).

B1: pCART203 (enzyme)
chain: MDDYQRNATEAYAKEVPHQITSVWTKGVTPPEQFTQGEDVIHAPYLAHQGWYDITKAFDGKDNLLCGAATAGNMLHWWFDQNKTEIEAYLSKHPEKQKIIFNNQELFDLKAAIDTKDSQTNSQLFNYFRDKAFPNLSARQLGVMPDLVLDMFINGYYLNVFKTQSTDVNRPYQDKDKRGGIFDAVFTRGDQTTLLTARHDLKNKGLNDISTIIKQELTEGRALALSHTYANVSISHVINLWGADFNAEGNLEAIYVTDSDANASIGMKKYFVGINAHGHVAISAKKIEGENIGAQVLGLFTLSSGKDIWQKLSGGGHHHHHH
B2: pCART197 (enzyme)
chain: MDDYQRNATEAYAKEVPHQITSVWTKGVTPLTPEQFRYNNEDVIHAPYLANQGWYDITKAFDGKDNLLCGAATAGNMLHWWFDQNKTEIEAYLSKHPEKQKIIFRNQELFDLKEAIRTKDSQTNSQLFEYFRDKAFPYLSARQLGVMPDLVLDMFINGYYLNVFKTQSTDVKRPYQDKDKRGGIFDAVFTRGNQTTLLTARHDLKNKGLNDISTIIKEELTKGRALALSHTYANVSISHVINLWGADFNAEGNLEAIYVTDSDANASIGMKKYFVGINKHGHVAISAKKIEGENIGAQVLGLFTLSSGKDIWQKLNGGGHHHHHH
B3: pCART201 (enzyme)
chain: MSVWTKGVTPLTPEQFRYNNEDVIHAPYLAHQGWYDITKAFDGKDNLLCGAATAGNMLHWWFDQNKTEIEAYLSKHPEKQKIIFNNQELFDLKAAIDTKDSQTNSQLFNYFRDKAFPNLSARQLGVMPDLVLDMFINGYYLNVFKTQSTDVNRPYQDKDKRGGIFDAVFTRGDQTTLLTARHDLKNKGLNDISTIIKQELTEGRALALSHTYANVSISHVINLWGADFNAEGNLEAIYVTDSDANASIGMKKYFVGINAHGHVAISAKKIEGENIGAQVLGLFTLSSGKDIWQKLSGGGHHHHHH

Assays:
[1] = target: rabbit anti-BSA (ACRIS, #R1048P); assay: cell-based or functional assay
denosumab (XGEVA) = assay: cell-based or functional assay

Row | Binder | pCART124 ratio (fold change in potency relative to IdeS), ELISA-based potency assay [1] | IgG2 (denosumab) cleavage, SDS-PAGE titration: fold efficacy over IdeZ (denosumab (XGEVA))
1 | B1 | ~3.5 fold over IdeS | ~3 fold vs pCART144
2 | B2 | 8 fold over pCART124 | 
3 | B3 | 8 fold over pCART124 | 
